# B1: heparinase III: HLGAG degrading enzyme from Flavobacterium heparinum (EC 4.2.2.8), SEQ ID NO:2; cleaves heparan sulfate (protein, listed as Pedobacter heparinus)
# chain: MTTKIFKRIIVFAVIALSSGNILAQSSSITRKDFDHINLEYSGLEKVNKAVAAGNYDDAAKALLAYYREKSKAREPDFSNAEKPADIRQPIDKVTREMADKALVHQFQPHKGYGYFDYGKDINWQMWPVKDNEVRWQLHRVKWWQAMALVYHATGDEKYAREWVYQYSDWARKNPLGLSQDNDKFVWRPLEVSDRVQSLPPTFSLFVNSPAFTPAFLMEFLNSYHQQADYLSTHYAEQGNHRLFEAQRNLFAGVSFPEFKDSPRWRQTGISVLNTEIKKQVYADGMQFELSPIYHVAAIDIFLKAYGSAKRVNLEKEFPQSYVQTVENMIMALISISLPDYNTPMFGDSWITDKNFRMAQFASWARVFPANQAIKYFATDGKQGKAPNFLSKALSNAGFYTFRSGWDKNATVMVLKASPPGEFHAQPDNGTFELFIKGRNFTPDAGVFVYSGDEAIMKLRNWYRQTRIHSTLTLDNQNMVITKARQNKWETGNNLDVLTYTNPSYPNLDHQRSVLFINKKYFLVIDRAIGEATGNLGVHWQLKEDSNPVFDKTKNRVYTTYRDGNNLMIQSLNADRTSLNEEEGKVSYVYNKELKRPAFVFEKPKKNAGTQNFVSIVYPYDGQKAPEISIRENKGNDFEKGKLNLTLTINGKQQLVLVP
# Legend:
# B16BL6 melanoma = test: Primary tumor growth of B16BL6 melanoma in mice treated with heparinases; assay type: in vivo
# Description: Heparinases I and III, which have very distinct substrate specificities for cleaving HLGAGs, were employed as tools to investigate the role of HLGAGs in tumor growth and metastasis. While heparinase I cleaves at the highly sulfated regions of HLGAGs, heparinase III only cleaves at the under-sulfated regions of the polysaccharide chain, thereby rendering these enzymes powerful tools to investigate in vivo and in vitro roles of HLGAGs, in development, morphogenesis, angiogenesis etc. To examine the roles of HLGAGs in tumor growth and metastasis, we used B16BL6 melanoma as a model system and treated tumor-bearing mice with either heparinases I or III to investigate both primary tumor growth as well as tumor metastasis. Consistent with the current paradigm, heparinase I accelerated tumor growth (FIG. 8). At a dosage of 0.5 mg/kg/day of heparinase I, tumor growth was increased by about 39%. […] Inhibition of primary tumor growth by heparinase III was first observed at 2 mg/kg per day. Tumor growth was inhibited by 73% at 12 mg/kg per day, the maximum dosage tested in the study (FIG. 8).
# Mice, 15 days after tumor implantation with B16BL6 melanoma, were examined. 4×10^5 log growth phase B16BL6 melanoma cells in 0.1 ml PBS were injected to the flank of C57BL/6 mice on day 1. Daily injection of 0.1 ml of PBS, heat inactivated hep III or active heparinase III (2 mg/ml, recombinantly expressed, purified, buffer exchanged with PBS, and concentrated) started at the day 4 and continued throughout the experiment. At day 7, osmotic pumps (100 μl capacity delivering at 0.5 μl per hour) containing PBS or 3 mg/ml hep III were implanted subcutaneously at a place remote from the tumor site. Mice were sacrificed at day 15.
# FIG. 8 depicts the tumor volume of the tumors isolated from the mice described above. Tumor volume was measured daily after day 7 with a caliper and calculated with the formula [volume=0.52×(width)^2×(length)].
# Erk-1, 2 = Erk-1, 2 activation in FGF2 stimulated B16BL6 cells (immunoblot); assay type: cell-based; details: enzyme 200 nM 30 min before 50 ng/ml FGF2
# Procedure: a. Methods: B16BL6 cells in 10 cm culture dishes were serum starved for 48 hours before stimulation with 50 ng/ml FGF2. Cells were stimulated for 20 minutes before whole cell lysates were prepared with 1 ml modified RIPA buffer containing various enzyme inhibitors (50 mM Tris-HCl, pH 7.4, 1% NP-40, 0.25% Na-deoxycholate, 150 mM NaCl, 1 mM EDTA, 1 mM PMSF, 1 μg/ml aprotinin, leupeptin, and pepstatin, 1 mM activated Na3VO4, 1 mM NaF). Protein concentration in the lysate was determined using the Bio-Rad protein assay kit (BioRad) and adjusted accordingly for electrophoresis analysis. For the heparinase treated groups, cells were treated with either hep I or hep III (200 nM) for 30 min at 37° C. prior to addition of FGF2. The immunoblot was probed with anti-Erk-1, 2 or anti-phospho-Erk-1, 2 antibody (New England Biolabs; MA) and detected by anti-rabbit IgG conjugated to HRP using SuperSignal West Pico Chemiluminescent substrate (Pierce, Ill.).
# FGFR1 = FGFR1 phosphorylation in B16BL6 tumor samples; set-up: species or system mice; details: mouse, in vivo
# Procedure: c. Effect of treatment of tumor with hep I and hep III in FGFR1 activation compared to PBS. Level of phosphorylated FGFR1 in tumor samples was assessed by standard immunoprecipitation followed by Westernblotting with phosphotyrosine specific antibody. Primary B16BL6 tumors were grown and treated as described earlier and at day 15 the tumor was harvested in cold modified RIPA buffer containing enzyme inhibitors and homogenized. The homogenates were past through 25-gauge needle 3 times and centrifuged. The supernatant was adjusted for protein concentration using the Bio-Rad protein assay kit (Bio-Rad). FGFR1 was immunoprecipitated with poly-clonal anti-FGFR1 antibody (Santa Cruz Biotechnology, Inc., CA). Samples were then pelleted, washed, and eluted from the beads by addition of sample buffer and boiled for 3 minutes (Kapila, Y. L., Wang, S. & Johnson, P. W. Mutations in the heparin binding domain of fibronectin in cooperation with the V region induce decreases in pp125(FAK) levels plus proteoglycan-mediated apoptosis via caspases. J Biol Chem 274, 30906-13 (1999).). After electrophoresis, the gel was transferred to nitrocellulose membrane by standard methods. The immunoblot was probed with phosphotyrosine specific antibody conjugated to HRP (RC20; Transduction Laboratories, Lexington, Ky.) and developed with SuperSignal West Pico Chemiluminescent substrate. […]
molecule,measurement,setting,value
B1,inhibition of tumor growth,"B16BL6 melanoma; 12 mg/kg per day, maximum dosage tested",73%
same,dosage at which inhibition of primary tumor growth was first observed,"B16BL6 melanoma; mouse, in vivo",2 mg/kg per day
same,primary tumor growth,"B16BL6 melanoma; nude mice and C57BL/6 mice, subcutaneous injections",significant inhibition in primary tumor growth
same,"Erk-1, 2 activation upon FGF2 stimulation","Erk-1, 2","decreased Erk-1, 2 activation"
same,phosphorylation of FGFR1 in primary tumor,FGFR1,inhibited phosphorylation of FGFR1

# — patent US7939292B2, “Modified heparinase III and methods of sequencing therewith” (Massachusetts Institute of Technology, priority 2000, dated 2011)
